Results published in patent publication WO2021175954A1 (dated 2021).
Numbering of substitutions follows the chain as printed. Values joined by “and” are separate entries in the source; they are usually repeats but may differ in a detail not shown here. Identical values can stand only once.

T1: human BTNL8 expressed on cells (HEK-BTNL8 transductants); also endogenous on CaCo-2, HL-60 and primary gut … (human, UniProt Q6UX41 18-500)
T1 construct: also called Homo sapiens butyrophilin like 8
T1 sequence: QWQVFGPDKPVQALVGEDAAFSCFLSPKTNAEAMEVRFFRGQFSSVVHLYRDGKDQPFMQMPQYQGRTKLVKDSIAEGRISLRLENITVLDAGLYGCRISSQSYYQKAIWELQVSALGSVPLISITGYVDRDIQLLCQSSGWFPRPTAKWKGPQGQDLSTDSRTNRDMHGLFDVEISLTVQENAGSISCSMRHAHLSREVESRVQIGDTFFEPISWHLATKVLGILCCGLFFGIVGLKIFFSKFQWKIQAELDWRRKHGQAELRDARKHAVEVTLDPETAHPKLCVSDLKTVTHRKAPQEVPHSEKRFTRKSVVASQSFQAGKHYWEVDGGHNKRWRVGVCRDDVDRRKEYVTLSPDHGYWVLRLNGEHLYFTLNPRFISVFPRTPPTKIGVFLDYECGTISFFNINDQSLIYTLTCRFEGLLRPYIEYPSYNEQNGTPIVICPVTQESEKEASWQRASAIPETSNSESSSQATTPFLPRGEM

T2: human BTNL8/BTNL3 heterodimer expressed on HEK-293T cells (human, UniProt Q6UXE8 18-466)
T2 construct: whole, on cells; also called HEK-BTNL8/BTNL3; HEK-BTNL3/BTNL8
T2 sequence 1: T1 sequence
T2 sequence 2: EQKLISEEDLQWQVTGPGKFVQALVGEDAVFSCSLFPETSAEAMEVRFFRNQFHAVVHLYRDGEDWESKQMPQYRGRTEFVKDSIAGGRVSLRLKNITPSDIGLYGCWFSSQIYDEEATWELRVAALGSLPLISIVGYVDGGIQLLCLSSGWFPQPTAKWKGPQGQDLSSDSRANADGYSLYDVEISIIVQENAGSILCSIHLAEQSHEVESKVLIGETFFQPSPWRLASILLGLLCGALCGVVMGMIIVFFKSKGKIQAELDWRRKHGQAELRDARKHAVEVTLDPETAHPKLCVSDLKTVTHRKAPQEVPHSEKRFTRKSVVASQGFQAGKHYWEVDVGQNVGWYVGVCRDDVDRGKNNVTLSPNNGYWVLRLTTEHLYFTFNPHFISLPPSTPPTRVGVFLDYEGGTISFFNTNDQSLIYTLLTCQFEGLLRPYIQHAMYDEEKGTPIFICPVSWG

T3: human BTNL3 with N-terminal c-Myc tag expressed on HEK-293T cells (human, UniProt Q6UXE8 18-466)
T3 construct: whole, on cells; also called HEK-BTNL3; myc-tagged BTNL3
T3 sequence: T2 sequence 2

T4: recombinant human BTNL8 protein (BLI) (human, UniProt Q6UX41 18-238, limits assumed)
T4 construct: it may be the same rhBTNL8-Fc as in the Luminex assay; also called hBTNL8; recombinant BTNL8 protein
T4 sequence: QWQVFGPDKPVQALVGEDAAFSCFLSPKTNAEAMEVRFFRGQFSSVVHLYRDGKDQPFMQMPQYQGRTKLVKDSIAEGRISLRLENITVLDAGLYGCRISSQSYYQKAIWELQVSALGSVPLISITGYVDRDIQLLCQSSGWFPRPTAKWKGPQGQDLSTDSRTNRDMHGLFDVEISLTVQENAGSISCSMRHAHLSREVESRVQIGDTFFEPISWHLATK

B1: chimeric anti-BTNL8 mAb mAbX4 (antibody, V domains shown)
VH: EVQLQQSGAELVRPGASVKLSCTASGFNIKDDYMHWVKQRPEQALEWIGRIDPANGNTKYVPKFQDKATITADTSSNTASLQLSSLTSEDTAVYYCARWGIYDGYYYTMDSWGQGTSVTVSS
VL: QNVLIQSPAIMSASPGEKVTITCSASSSVSYMHWFQQKPGTSPKLWIYSTSNLASGVPARFSGSGSGTSYSLTISRMEAADAATYFCQQRSRYPYTFGGGTKLEIK
B2: chimeric anti-BTNL8 mAb mAbX5 (antibody, V domains shown)
VH: EVQLQQSGAELVRPGASIKLSCTASGFNIEDDYMHWVRQRPVQGLEWIGRIDPANGNANFAPKFQDKATITADTSSNTAYLQLSSLASEDTAVYYCTREGGLYYGNSDAMDYWGQGTSVTVSS
VL: B1 VL with N2I, I5T, S26R, H33Q, F35I, A59D, A80E, F86Y, Y95R
B3: chimeric anti-BTNL8 mAb mAbX2 (antibody, V domains shown)
VH: EVQLQQSGAEFVRPGASVKMSCTGSGLNIEDDYMHWVKQRPEQGLEWIGRIDPANGNTKYGPKFQDKATITADTSSNTAYLQLSSLTAEDTAVYYCTRNYYDGSLYYFDYWGQGTTLTVSS
VL: QIVLTQSPAIMSASLGEEITLTCSASSSVSYMHWYQQKSGTSPKLLIYSTSNLASGVPSRFSGSGSGTFYSLTISSVEAEDAADYYCHQWSRYPYTFGGGTKLEIK
B4: chimeric anti-BTNL8 mAb mAbX1 (antibody, V domains shown)
VH: QVQLQQSGAELARPGASVKLSCKASGYIFTSYGIGWVKQRTGQGLEWIGEVYPRNGHSYYNEKFKGKATLTADRSSSTAYMQLSSLTSEDSAVYFCARGGTGSQLDYWGQGTTLTVSS
VL: DIQMTQSPASLSASVGETVTITCRASENIYSYLAWYQQKQGKSPHLLVYNAKTLAEGVPSRFSGSGSGTQFSLRISSLQPEDFGNYYCQHHYGTYTFGGGTKLEIK
notes: also called mAbXl
B5: reference murine antibody mAb X5 (antibody, V domains shown)
VH: B2 VH
VL: B1 VL with N2I, I5T, S26R, H33Q, F35I, A59D, A80E, F86Y, Y95R
notes: Murine monoclonal antibody, tested as hybridoma supernatant or purified from it
B6: reference murine antibody mAb X4 (antibody, V domains shown)
VH: B1 VH
VL: B1 VL
notes: as for B5
B7: reference murine antibody mAb X2 (antibody, V domains shown)
VH: B3 VH
VL: B3 VL
notes: as for B5
B8: reference murine antibody mAb X1 (antibody, V domains shown)
VH: B4 VH
VL: B4 VL
notes: as for B5
B9: chimeric anti-BTNL8 mAb mAbX3 (antibody, V domains shown)
VH: EVQLQQSGAELVRPGASVKLSCTASGFNIKDDYMHWVKQRPEQGLEWIGRIDPANANTKYAPKFQDKATITADTSSNTAYLHLSSLTSEDSAVYYCARNYYDGSPYYFDYWGQGTTLTVSS
VL: NIVMTQSPKSMSMSVGERVTLTCKASENVVTYVSWYQQKPEQSPKLLIYGASNRYTGVPDRFTGSGSATDFTLTISSVQAEDAAGYYCHQWSRYPYTFGGGTKLEIK

What follows are binders tested against T1, human BTNL8 expressed on cells … (assay: flow cytometry on HEK-BTNL8 cells, chimeric format).
For B1, the EC50 was < 0.5 µg/mL and < 3.3 nM. In the case of B2, the EC50 is reported as < 0.5 µg/mL and < 3.3 nM. With B3 the EC50 was < 0.5 µg/mL and < 3.3 nM. In the case of B4, the EC50 is reported as < 0.5 µg/mL and < 3.3 nM.

Each binder was assayed against T2, human BTNL8/BTNL3 heterodimer expressed … (assay: flow cytometry on HEK-BTNL3/BTNL8 cells, chimeric format).
For B1, the EC50 was < 0.5 µg/mL and < 3.3 nM. For B2, the EC50 was < 0.5 µg/mL and < 3.3 nM. B3 was tested, and the EC50 was < 0.5 µg/mL and < 3.3 nM. With B4 the EC50 was < 0.5 µg/mL and < 3.3 nM.

Each binder was assayed against T3, human BTNL3 with N-terminal c-Myc tag … (assay: flow cytometry on HEK-BTNL3 cells).
B5: no binding. B6: no binding. B7: no binding. B8: no binding.

The binders below were run against T4, recombinant human BTNL8 protein (BLI) (assay: BLI, recombinant human BTNL8).
B9: no binding.

These binders were tested against T2, human BTNL8/BTNL3 heterodimer expressed … (assay: cell-based or functional assay).
For B1, the “IC50/EC50 of inhibition of Vy4V51TCR reporter cell activation (NFAT-GFP, CD69, TCRV51)” value was < 0.5 µg/mL and < 3.3 nM. In the case of B2, the “IC50/EC50 of inhibition of Vy4V51TCR reporter cell activation (NFAT-GFP, CD69, TCRV51)” value is reported as < 0.5 µg/mL and < 3.3 nM. With B3 the “IC50/EC50 of inhibition of Vy4V51TCR reporter cell activation (NFAT-GFP, CD69, TCRV51)” value was < 0.5 µg/mL and < 3.3 nM. In the case of B4, the “IC50/EC50 of inhibition of Vy4V51TCR reporter cell activation (NFAT-GFP, CD69, TCRV51)” value is reported as < 0.5 µg/mL and < 3.3 nM.
